This experiment addresses biotinylated SARS-CoV-2 RBD (SARS-CoV-2) (UniProt P0DTC2). Nature of the experiment: flow cytometry on antigen-coated beads. A general note: Flow cytometry measures light scatter and fluorescence of single cells or particles in a stream.

Substitutions are numbered along the chain they refer to.

Usually EC50 stands for the concentration giving half of the maximal effect.

B1: 12H2 (antibody, V domains shown)
VH: EVQLQESGPGLVKPSQSLFLTCTVTGYSITSDYAWNWIRQFPGNKLEWMGYITYSGSTSYNPSLKSRISITRDTSKNQFFLQLNSVTTEDTATYYCARGDGYFFPLDYWGQGTTLTVSS
VL: DIVMTQSPSSLSVSAGEKVTMSCKSSQSLLNSGNQKSYLAWYQQRPGQPPKLLIYGASTRESGVPDRFTGSGSGTDFTLTISSVQAEDLAVYYCQNDHSYPPTFGAGTKLELK
As to B1, the EC50 is 0.066 nM.

B2: 13I1 (antibody, V domains shown)
VH: B1 VH with F19S, K65R, T88S, F103Y
VL: B1 VL with S32G, R45K
For the molecule B2, the EC50 was 0.082 nM.

The record behind these values is article PMC8528929.
